What was measured:
[1] = molecular target: T1, ToxR-C (C-terminal periplasmic domain of ToxR) (Vibrio vulnificus, UniProt Q9RP86); test: isothermal titration calorimetry; type: binding
T1 construct: C-terminal His-tag (pET21a), expressed in E. coli BL21(DE3)

[2] = molecular target: C-terminal periplasmic domain of ToxR (ToxR-C) (Vibrio vulnificus); test: ITC; 0.2 mM ToxR-C in the cell, 10 mM cFP or linear FP in the syringe, 2 ul injections at 2 min intervals, 25 °C, 20 mM Na2HPO4 pH 7.8, 1 mM EDTA; simple binding model

Row | Compound | Kd [1] [µM] | Kd [2] [µM] | stoichiometry N [2]
1 | O=C1N[C@@H](Cc2ccccc2)C(=O)N2CCC[C@@H]12 [cFP] | 42 |  | 
2 | cyclic-L-phenylalanine-L-proline (cFP) (peptide) |  | 42 | 1
